# Measurements taken from US20240287172A1 (SCIRHOM, published 2024).
# T1: hiR2-FL-L589A-T7 (human, UniProt Q6PJF5 1-856)
# T1 sequence: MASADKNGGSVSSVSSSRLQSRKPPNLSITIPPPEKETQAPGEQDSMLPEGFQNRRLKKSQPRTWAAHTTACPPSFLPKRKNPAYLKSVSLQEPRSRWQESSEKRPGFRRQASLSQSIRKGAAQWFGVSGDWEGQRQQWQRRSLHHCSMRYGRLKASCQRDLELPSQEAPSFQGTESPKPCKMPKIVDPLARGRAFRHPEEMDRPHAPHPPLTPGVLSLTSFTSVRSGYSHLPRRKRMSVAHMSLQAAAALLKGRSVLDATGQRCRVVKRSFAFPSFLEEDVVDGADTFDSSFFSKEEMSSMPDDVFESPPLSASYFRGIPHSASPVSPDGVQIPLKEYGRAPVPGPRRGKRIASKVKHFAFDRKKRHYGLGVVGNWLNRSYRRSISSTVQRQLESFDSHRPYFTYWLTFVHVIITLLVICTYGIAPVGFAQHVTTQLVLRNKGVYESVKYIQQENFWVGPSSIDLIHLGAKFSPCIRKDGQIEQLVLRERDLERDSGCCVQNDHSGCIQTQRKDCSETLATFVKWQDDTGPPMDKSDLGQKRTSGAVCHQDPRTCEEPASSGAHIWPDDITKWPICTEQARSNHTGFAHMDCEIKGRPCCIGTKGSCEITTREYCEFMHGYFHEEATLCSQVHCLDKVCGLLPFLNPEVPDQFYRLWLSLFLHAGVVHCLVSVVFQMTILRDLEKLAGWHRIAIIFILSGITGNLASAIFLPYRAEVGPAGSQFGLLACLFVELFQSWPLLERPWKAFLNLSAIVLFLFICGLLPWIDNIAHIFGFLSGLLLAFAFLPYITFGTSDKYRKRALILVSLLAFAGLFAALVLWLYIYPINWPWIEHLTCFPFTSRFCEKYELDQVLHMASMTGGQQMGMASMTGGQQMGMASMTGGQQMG
# T2: hiR2-FL-D592A-T7 (human, UniProt Q6PJF5 1-856)
# T2 sequence: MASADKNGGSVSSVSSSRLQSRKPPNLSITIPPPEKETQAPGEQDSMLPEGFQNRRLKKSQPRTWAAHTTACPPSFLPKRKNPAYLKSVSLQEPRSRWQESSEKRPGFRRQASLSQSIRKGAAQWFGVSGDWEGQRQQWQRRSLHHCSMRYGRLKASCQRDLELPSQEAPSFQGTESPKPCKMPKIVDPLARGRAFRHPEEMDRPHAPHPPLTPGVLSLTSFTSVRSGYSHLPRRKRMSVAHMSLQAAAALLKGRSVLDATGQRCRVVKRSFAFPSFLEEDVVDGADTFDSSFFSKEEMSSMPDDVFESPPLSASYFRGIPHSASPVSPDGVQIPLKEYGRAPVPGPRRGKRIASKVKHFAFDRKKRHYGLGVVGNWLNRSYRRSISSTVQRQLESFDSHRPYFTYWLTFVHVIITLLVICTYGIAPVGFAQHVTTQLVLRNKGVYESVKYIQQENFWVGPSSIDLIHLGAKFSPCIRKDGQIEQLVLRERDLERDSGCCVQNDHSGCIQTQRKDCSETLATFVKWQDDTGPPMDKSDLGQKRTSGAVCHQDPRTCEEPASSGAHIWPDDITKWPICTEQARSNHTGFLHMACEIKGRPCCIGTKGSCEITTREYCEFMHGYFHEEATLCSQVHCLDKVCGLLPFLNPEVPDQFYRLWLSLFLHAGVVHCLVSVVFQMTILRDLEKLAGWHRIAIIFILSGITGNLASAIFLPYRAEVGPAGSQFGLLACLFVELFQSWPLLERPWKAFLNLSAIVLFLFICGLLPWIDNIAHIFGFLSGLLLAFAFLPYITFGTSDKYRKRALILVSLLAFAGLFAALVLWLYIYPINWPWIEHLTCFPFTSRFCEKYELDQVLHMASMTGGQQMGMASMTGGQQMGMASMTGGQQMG
# B1: antibody 48 (antibody, V domains shown)
# VH: QVQLQQSGTELVRPGTSVKVSCKASGYAFTNYLIEWVKQRPGQGLEWIGVINPGSGFTKYNEKFKGKATLTADKSSSTVYMHLSSLTSEDSAVYFCARGLYRAMDYWGQGTSVTVSS
# VL: DIQMTQSPASQSASLGESVTITCLASQTIATWLAWYQQKPGKSPQLLIYGATTLADGVPSRFSGGGSGTKFSFKISSLQAEDFVSYYCQQLYSTPYTFGGGTKLEIK
# notes: mouse IgG, kappa light chain; also called clone #48; purified antibody 48
# B2: antibody 50 (antibody, V domains shown)
# VH: QVQLQQSGAELVRPGASVKVSCKASGYAFSNYLIEWVKQRPGQGLEWIGVINPGSGFTKYNEKFKGKATLTADKSSSTAYMQLSSLTSEDSAVYFCARGLYRAMDYWGQGTSVTVSS
# VL: DIQMTQSPASQSASLGESVTITCLASQTIGTWLAWYQQKPGKSPQLLIYAAASLADGVPSRFSGGGSGTKFSFKISSLQAEDFVNYYCQQIYSTPYTFGGGTKLEIK
# notes: mouse IgG, kappa light chain; also called clone #50; purified antibody 50
# Experiments:
# [1] = biological target: T1, hiR2-FL-L589A-T7; test: FACS on MEF-DKO cells expressing the variant, 3 µg/ml antibody
# How it was run: (§1)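 Cells stained with purified antibody at 3 μg/ml for 1 h on ice, then with PE-conjugated goat anti-mouse IgG F(ab′)2 (1:100) for 1 h on ice in the dark. Binding read by flow cytometry; buffer-only staining as control.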
# [2] = biological target: T2, hiR2-FL-D592A-T7; test: as above
# How it was run: as §1
Binder,loss of binding vs wild type [1],loss of binding vs wild type [2]
B1,≥ 60%,≥ 60%
B2,≥ 60%,≥ 60%
